According to patent US11530263B2, “IL-18 binding protein (IL-18BP) in inflammatory diseases” (AB2 BIO SA, priority 2013, dated 2022):
Where two headings read alike, the source gives them in different places.

Experiments:
IL-18 [1] = biological target: T1, IL-18 (Homo sapiens, UniProt Q14116); details: cited from earlier work
T1 sequence (Q14116 37-193): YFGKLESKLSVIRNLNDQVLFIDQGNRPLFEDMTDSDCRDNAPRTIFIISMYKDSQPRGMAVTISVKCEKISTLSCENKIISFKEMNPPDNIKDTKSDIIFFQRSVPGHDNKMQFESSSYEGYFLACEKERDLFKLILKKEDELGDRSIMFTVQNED

[2] = tested on: total cell infiltration in the lung airway space; assay: Exacerbation/tobacco smoke mouse model: total cell infiltration in lung airway space (BALF); assay type: in vivo, C57BL/6J mice
Procedure: (§1) The aim of the study was to determine the effect of IL-18BP, administered at three dose levels, by the sub-cutaneous route, on Polyinosinic:polycytidylic acid-induced exacerbation of tobacco-smoke induced pulmonary inflammation, in C57BL/6J mice. High level of dexamethasone, dosed orally, was included in the study as a reference agent.
(§2) Mice received either vehicle (PBS) or IL-18BP. IL-18BP was given subcutaneously to 3 groups of animals respectively at 1, 3 or 10 mg/kg 2 h prior to the initial tobacco smoke exposure from Day 1 to Day 4. Mice received orally either vehicle or dexamethasone (10 mg/kg) 1 h prior to each twice daily exposure. Mice received by intranasal administration either the vehicle or Polyinosinic:polycytidylic acid (2 mg/kg) 2 h prior to the initial air or tobacco smoke exposure on Day 4 to induce lung inflammation exacerbation. Tobacco smoke exposure was performed during the morning and afternoon as follow: Day 1 for 15 min, Day 2 for 25 min, Day 3 for 30 min and Day 4 for 30 min.
(§3) Following the above treatments, animals were terminally anaesthetised on Day 5. After that, a blood sample was taken via the sub-clavian artery (plasma) and the animals were bronchoalveloar lavaged with 3×0.4 ml of PBS for further cellular and cytokine/mediator analysis. […] Cells recovered from the BALF were counted using the Sysmex cell counter.

[3] = tested on: neutrophil infiltration in the lung airway space; assay: Exacerbation/tobacco smoke mouse model: neutrophil infiltration in lung airway space; assay type: in vivo, C57BL/6J mice
Procedure: as §1, §2, §3

G-CSF = assay: Exacerbation/tobacco smoke mouse model: G-CSF in BALF by ELISA; assay type: in vivo, C57BL/6J mice; details: three tested doses 1, 3, 10 mg/kg s.c., day 5, FIG. 9
Procedure: as §1
as §2, with “Tobacco smoke exposure was performed during the morning and afternoon as follow: Day 1 for 15 min, Day 2 for 25 min, Day 3 for 30 min and Day 4 for 30 min.” left out
Following the above treatments, animals were terminally anaesthetised on Day 5. […] Cells recovered from the BALF were counted using the Sysmex cell counter.
G-CSF is well acknowledged as key cytokine stimulating the survival, proliferation, differentiation, and function of neutrophil precursors and mature neutrophils. […] The presence of G-CSF in the BALF was monitored with a commercially available ELISA kit.

[4] = Exacerbation/tobacco smoke mouse model: weight loss and tolerability; assay type: in vivo, C57BL/6J mice
Procedure: as §1, §2
As an example, weight loss was mitigated by IL-18BP even though both Students t-test and ANOVA statistical analyses were not significant (see FIG. 10). A large majority of mice receiving 3 and 10 mg/kg IL-18BP lost respectively 6-7% weight in contrast to the control exposed to tobacco smoke and p[I:C] that lost about 9%.

IL-18 [5] = biological target: T1, IL-18; assay: New BIAcore setup: IL-18BP bound to chip, affinity to IL-18; assay type: binding; details: IL-18BP on BIAcore chip
Text: Following the above KD results obtain by titration, we tested the binding affinity of IL-18BP to IL-18 with a simpler BIAcore setup consisting of binding IL-18BP to the BIAcore chip and then testing its affinity to IL-18. The method setup is the contrary of Kim et al 2000^8, who bound IL-18 to the BIAcore chip with a monoclonal antibody and then tested the affinity of the complex antibody-IL-18 to IL-18BP.

IL-18 [6] = biological target: T1, IL-18; assay: KD calculation by titration with free IL-18 ELISA (IL-18BP capture); assay type: binding; details: read-out: KD between human IL-18 and IL-18BP by titration
Procedure: Microplate wells are coated with an appropriate volume phosphate buffer saline solution containing recombinant human IL-18BP. Plates are incubated for a period of time at 4° C. and then stabilized with a blocking buffer containing bovine serum albumin or other appropriate blocking agents. Once the reaction is finished, microplates are sealed and stored at 4° C. until used for detection of free IL-18. Microplates can also be dried in a stabilizing solution allowing storage at room temperature and then be reconstituted by hydration when needed for assay.
As an example, for a final reaction volume of 100 μl, dispense first 80 μl of biotin/antibody conjugate. Samples or biological fluids containing free IL-18 are tested with the IL-18BP coated microplates. After that, 20 μl sample volume containing biological fluid or standard is dispensed per microplate well. Non-diluted or diluted biological fluid can be but is not restricted to serum, urine, tear, saliva, bile, sweat, exhalation or expiration, sputum, bronchoalveolar fluid, sebum, cellular, gland, mucosa or tissue secretion, biopsy, homogenized tissue. […] The resulting reactions are then monitored with a microplate reader at an appropriate nanometer wavelength for absorbance or fluorescence of the produced reagent. […]
KD was calculated based on the following formula: KD=[free IL-18]×[free IL-18BP]/[IL-18/IL-18BP complex] […]

IL-18 [7] = biological target: T1, IL-18; assay: Titration of free IL-18 as a function of IL-18BP level (free IL-18 ELISA); assay type: binding; details: 400 pg/mL IL-18 in PBS with 5% BSA
Procedure: A constant quantity of recombinant IL-18 was titrated as a function of different and well defined quantities of IL-18BP in order to understand when free IL-18 is not any more detectable. A PBS solution of 400 pg/mL IL-18 supplemented by 5% BSA was spiked with defined quantities of IL-18BP ranging from 0 to 10′000 pg/mL. The molar ratios were calculated according to the respective molecular weight of IL-18 and IL-18BP. The free IL-18 detection was performed with ELISA using IL-18BP for IL-18 as described above. […] In contrast, when molar ratio is lower than 15, free IL-18 is easily detectable.

B1: IL-18BP: IL-18 Binding Protein, naturally occurring IL-18 antagonist, as shown in SEQ ID NO: 7 (protein)
chain: TPVSQTTTAATASVRSTKDPCPSQPPVFPAAKQCPALEVTWPEVEVPLNGTLSLSCVACSRFPNFSILYWLGNGSFIEHLPGRLWEGSTSRERGSTGTQLCKALVLEQLTPALHSTNFSCVLVDPEQVVQRHVVLAQLWAGLRATLPPTQEALPSSHSSPQQQG
modifications: IL-18 binding protein
IL-18 [1]; BIAcore, literature, read-out: KD reported in the literature (Kim et al 2000)
  Kd: 400 pM
IL-18 [1]; used in Law of Mass Action calculation, read-out: Dissociation constant as calculated by Kim et al 2000
  Kd: 400 pM
[2]; 10 mg/kg s.c., day 5, FIG. 6
  Exacerbated inflammation inhibition (total cell infiltration): clear and statistically relevant efficacy
[2]; 3 and 10 mg/kg s.c., day 5, compared to dexamethasone, FIG. 5
  Mitigation of total cell infiltration in the lung: statistically valuable efficacy
[3]; 10 mg/kg s.c., day 5, FIG. 8
  Inhibition of neutrophil infiltration: best statistical efficacy
[3]; 3 and 10 mg/kg s.c., day 5, FIG. 7
  Inhibition of neutrophil infiltration: statistically valuable efficacy
G-CSF
  Mitigation of G-CSF release in the lung airways: statistically relevant effect
[4]; 3 and 10 mg/kg s.c., large majority of mice, day 5
  Weight loss: 6-7%
[4]; exacerbation/tobacco smoke mouse model
  Tolerability: well tolerated
IL-18 [5]
  Ka: 5.3 ± 1.2 10^+5/Ms
IL-18 [6]; PBS supplemented by 5% BSA diluent
  Kd: 35 pM
IL-18 [6]; serum diluent (healthy volunteer sera depleted in endogenous IL-18BP)
  Kd: 50 pM
IL-18 [7]
  IL-18BP concentration at which 400 pg/mL IL-18 detection is near background: ≥ 6000 pg/mL
